ELISA reading data for three molecules are collected here from US20030232009A1.

Where a chain is given by its changes, count along the chain named.

This experiment has as its target Human 20.2 + 18mer. Put plainly: ELISA, well supernatant on coated peptides.

B1: antibody in the supernatant of B cell culture well 170B8 (antibody, V domains shown)
VH: AVQLLESGGGLIQPGGSLRLSCAASGFTFSSYAMSWVRQAPGKGLEWVSAISGSGGSTFYADSVRGRFTISRDNSKNTLYLQMNSLRVEDTAVYYCAKEVMGPIFFDYWGQGTLVTVSS
VL: EIVLTQSPGTLSLSPGERATLSCRASQSIISSALAWYQQKPGQAPRLLIYGASSRATGIPDRFSGSGSGTDFTLTISRLEPEDFAVYHCQQYGSTPLTFGGGTKVEIK
Take B1: the ELISA reading was 1.7.

B2: antibody in the supernatant of B cell culture well 250F2 (antibody, V domains shown)
VH: QVQLVESGGDLVKPGGSLRLSCAASGFSFSGYYLSWIRQAPGKGLEWVSYISLSGSFIKYADSVKGRFTISRDNAKKTLHLQMNSLRAEDTAVYYCARRTGTTTVFDYWGQGTLVTVSS
VL: EVVMTQSPATLSVSPGERATLSCRASQSVNSNLAWYQQRPGQAPRLLIYGASTRVTGIPARFSGSGSGTEFTLTISSLQSEDFAVYYCQQYNNWPLTFGGGTKVEIK
In the case of B2, the ELISA reading came to 0.4.

B3: antibody in the supernatant of B cell culture well 283B2 (antibody, V domains shown)
VH: QVQLVESGGGLVKPGGSLRLSCAASGFTFNVYYMNWIRQAPGKGLEWVSYISTSSSAIYYADSVKGRFTISRDNAKNSLYLQMNSLRAEDTAVYYCARRTGSTTVFDYWGQGTLVTVSS
VL: B2 VL with V2I, M4L, V29I, S31N, R39K, V55A, R61K, D82N, N93K
As for B3, the ELISA reading is 0.5.
